Columns and labels:
[1] = test system: QAg mutant with tyrosine 463 changed to phenylalanine
[2] = test system: QAg mutant with tyrosine 490 changed to phenylalanine
[3] = test system: QAg mutant with tyrosine 450 changed to phenylalanine
[4] = test system: QAg, hexahistidine fusion protein of the carboxy-terminal 62 amino acids of Rak
[5] = test system: QAg mutant with tyrosine 497 changed to phenylalanine

Sequence of p50^csk, cytoplasmic tyrosine kinase CSK purified from baculovirus-infected insect cells (P41240 whole entry): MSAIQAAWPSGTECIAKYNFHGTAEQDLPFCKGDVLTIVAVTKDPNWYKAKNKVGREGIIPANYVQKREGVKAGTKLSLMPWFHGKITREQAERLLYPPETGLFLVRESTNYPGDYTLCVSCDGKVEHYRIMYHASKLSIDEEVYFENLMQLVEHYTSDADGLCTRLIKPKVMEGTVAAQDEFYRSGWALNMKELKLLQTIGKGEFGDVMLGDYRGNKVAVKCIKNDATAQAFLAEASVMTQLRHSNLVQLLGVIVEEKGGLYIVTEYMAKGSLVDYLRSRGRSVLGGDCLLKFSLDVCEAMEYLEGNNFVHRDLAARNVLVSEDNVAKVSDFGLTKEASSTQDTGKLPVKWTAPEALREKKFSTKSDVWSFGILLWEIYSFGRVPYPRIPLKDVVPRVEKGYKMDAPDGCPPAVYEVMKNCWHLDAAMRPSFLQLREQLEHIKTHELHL

p50^csk, cytoplasmic tyrosine kinase CSK purified from baculovirus-infected insect cells
phosphorylation by CSK (in vitro kinase assay) [1]: The mutant at position 463 was phosphorylated at levels equivalent to the wild-type peptide
phosphorylation by CSK (in vitro kinase assay) (fraction of wild-type peptide) [2]: 0.5
phosphorylation by CSK (in vitro kinase assay) (fraction of wild-type peptide) [3]: 0.5
phosphorylation by CSK (in vitro kinase assay) [4]: This peptide was readily phosphorylated by CSK
phosphorylation by CSK (in vitro kinase assay) [5]: Phosphorylation of the 497 mutant, however, was barely detectable

Source: patent US6531296
